Patent US6790824B1, “Cytokines having neurotrophic activity” (Biopharm Gesellschaft zur biotechnologischen Entwicklung …, priority 1997, dated 2004)

Columns and labels:
[1] = test system: preganglionic neurons to the adrenal medulla; assay: Preganglionic neuron protection in vivo after adrenomedullectomy; parameters: species or system rat; settings: adult rats, 1 μg GDNF in gelfoam into the medullectomized adrenal gland, four weeks
Experimental: This type of target deprivation causes the death of all preganglionic neurons to the adrenal medulla at four weeks, as previously shown by Blottner and Baumgarten (Exp. Neurol. 118 (1992) 35-46).
Adrenomedullectomy was performed on adult male Hanover-Wistar rats. Preganglionic neurons in the spinal cord innervating adrenal medullary chomaffin cells were identified by retrograde tracing with Fast Blue or Fluoro-Gold (FG). Factors (1 μg each) were soaked in gelfoam (Spongostan, Ferrosan, Soeburg, Denmark) prior to implantation into unilaterally medullectomized adrenal glands. Numbers of FG-labeled preganglionic neurons were determined by cell counts of complete series of longitudinal sections through spinal cord segments T7-T10 four weeks post-surgery. Only brightly fluorescent neurons containing a clearly visible nucleus were counted. Total numbers were corrected for possible double counts of split nuclei according to Abercombie's formula. Numbers of preganglionic neurons to the adrenal medulla surviving in sham-operated animals and on the unlesioned side were set as 100%. Data are given as mean values±SEM and the statistical significance of intergroup differences was determined by Student's t-test.

[2] = test system: rat embryonic mesencephalic dopaminergic neurons (E14); assay: Survival of rat embryonic mesencephalic dopaminergic neurons, count of tyrosine hydroxylase (TH) immunoreactive neurons after 8 days; assay type: cell-based; settings: GDNF 10 ng/ml, TGF-β3 2 ng/ml, 8 days in culture
Experimental: FIG. 8 depicts the survival promoting effect of GDNF on rat embryonic mesencephalic dopaminergic neurons (E14) is dependent on the presence of TGF-β. Dissociated cultures were treated with GDNF (10 ng/ml), with GDNF in the presence of anti-TGF-β1, -β2, -β3 (10 μg/ml), with TGF-β3 (2 ng/ml) or without any growth factor added (control) for 8 days in culture. Numbers of dopaminergic neurons were determined by counting the numbers of tyrosine hydroxylase (TH) immunoreactive neurons.

[3] = test system: chick ciliary ganglionic (CG) neurons; assay: Survival of embryonic chick ciliary ganglionic (CG) neurons, 24 h, counting of surviving neurons; assay type: cell-based
Experimental: (§1) Embryonic chick ciliary (CG), dorsal root (DRG), and sympathetic (SG) ganglia at embryonic day(s) (E) 8, 10, and 12, were dissected, freed from nerve roots and connective tissue and collected in CME. Ganglia were incubated in trypsin (ICN), washed and dissociated by trituration using fire-polished Pasteur pipettes. Cultures were set up in 96-well microtiter plates (Costar, A/2), precoated with poly-L-ornithine and laminin at a density of 1,200-1,500 cells/well in DMEM supplemented with N1 additives, 0.25% BSA, and 0.1% PSN (DME/N1) and incubated at 37° C. in a 5% CO2 incubator.
(§2) At appropriate times (CG: 24 h, DRG: 48 h, SG: 72 h) cultures were fixed by addition of 2.5% glutardialdehyde in phosphate buffered saline (PBS). Numbers of surviving neurons were determined by direct counting of 30% of the surface area using phase contrast microscopy.
Phosphatidylinositol-specific phospholipase C (PIPLC) is an enzyme that specifically cleaves glycosyl-phosphatidylinositol (GPI) linkages. Embryonic chick ciliary ganglionic neurons (E8) were isolated and seeded as described before. Neurons were incubated for 1 h at 37° C. with 1) 100 mU PIPLC or II) 100 mU PIPLC+2 ng/ml TGFβ or III) without enzyme and then growth factors were added. The number of surviving neurons was determined 24 h later.

[4] = test system: chick sympathetic ganglionic (SG) neurons; assay: Survival of embryonic chick sympathetic ganglionic (SG) neurons, 72 h, counting of surviving neurons; assay type: cell-based
Experimental: as §1, §2

[5] = test system: embryonic chicken dorsal root ganglia (DRG) neurons; assay: Survival of dissociated embryonic chick dorsal root ganglia (DRG) neurons, 48 h, counting of surviving neurons; assay type: cell-based
Experimental: Dissociated cultures of embryonic chicken dorsal root ganglia (DRG) were generated as described in details by Krieglstein and Unsicker (Neurochem. Res., 21(7) (1996) 843-850). Briefly, DRGs from white Leghorn chick embryos (day 8) were dissected in Ca^2+-Mg^2+ free Hanks' balanced salt solution. After incubation in 0.08% trypsin for 15 min ganglia were dissociated by trituration. Cells were seeded in polyomithin-laminin coated 96-well microtiter plates (A/2 Costar) at a density of 1,200 cells/well. Growth factors were applied at the time of plating in a final volume of […] Dulbecco's Modified Eagle's Medium supplemented with 0.25% bovine serum albumin, N1 additives and 100 U/ml penicillin. As a positive control, nerve growth factor (NGF) was used at the saturating concentration of 5 ng/ml. After 48 h of incubation at 37° C. in a humidified atmosphere containing 5% CO2, cultures were fixed with 2.5% glutaraldehyde. Neuronal cells were identified by their phase-bright and neurite-bearing morphologies and counted within 30% of the total surface area using phase contrast microscopy. In the first set of experiments we tested the survival promoting effect of several growth factors of the bone morphogenetic protein family.
as §1, §2
Dissociated cultures of embryonic chicken dorsal root ganglia (DRGs) were generated as described in details by Krieglstein and Unsicker (Dev. Brain. Rees. 93 (1996) 10-17). Briefly, DRGs were dissected in Ca^2+-Mg^2+ free Hank's balanced salt solution (CMF). After incubation in 0.08% trypsin (BioWhittaker) for 15 min, ganglia were dissociated by gentle trituration using fire-polished Pasteur pipettes. Cells in suspension (neuron/non-neuron ratio 1:2) were seeded in polyomithin-laminin coated 96-well microtiter plates (A/2 Costar) at a density of 1,200 cells/well. Growth factors were applied at the time of plating in a final volume of 50 μl Dulbecco's Modified Eagle's Medium supplemented with 0.25% bovine serum albumin, N1 additives (Bottenstein et al., Exp. Cell Res. 125 (1980) 183-190) and 100 U/ml penicillin. As a positive control, nerve growth factor (NGF) was used at the saturating concentration of 10 ng/ml. After 48 h of incubation at 37° C. in a humidified atmosphere containing 5% CO2, cultures were fixed with 2.5% glutaraldehyde in phosphate buffered saline (PBS). Neuronal cells were identified by their phase-bright and neurite-bearing morphologies and counted within 30% of the total surface area using phase contrast microscopy. All experiments were performed in at least triplicate in two independent experiments. Data are presented as mean±SEM. Statistical comparisons were made with student's double t-test, ANOVA and MicrocalOrigin software. Differences were considered statistically significant at *P<0.05, **P<0.01, **P<0.001.

[6] = test system: embryonic chicken dorsal root ganglia (DRG) neurons; assay: as above; assay type: cell-based; settings: E8, 10% horse serum, saturating GDNF; compared with NGF in serum-free medium
[7] = E8, serum-free, factor added by itself

B1: GDNF: rh GDNF, neurotrophic factor, member of the TGF-β superfamily (protein, UniProt P39905 78-211, looked up)
Glial cell line-derived …: SPDKQMAVLPRRERNRQAAAANPENSRGKGRRGQRGKNRGCVLTAIHLNVTDLGLGYETKEELIFRYCSGSCDAAETTYDKILKNLSRNRRLVSDKVGQACCRPIAFDDDLSFLDDNLVYHILRKHSAKRCGCI
protection of preganglionic neurons after adrenomedullectomy [1]: fully protected the neurons
survival of dopaminergic neurons relative to untreated control cultures [2]: 160%
CG neuron survival with GDNF supplemented with 10% horse serum ([3]; E8, 24 h, compared with CNTF 5 ng/ml): as effectively as a saturating concentration of CNTF
EC50 of the synergistic survival effect ([3]; factor titrated in combination with 2 ng/ml of the other factor (GDNF/TGF-β), serum-free): 0.06 ng/mL
CG neuron survival, single factor in fully-defined medium ([3]; serum-free, each at the saturating amount of 2 ng/ml): only marginal survival promoting effects
SG neuron survival with GDNF in serum containing medium ([4]; E8, 10% horse serum, saturating GDNF, compared with NGF in serum-free medium): levels identical to those achieved by addition of the respective neurotrophic factor
SG neuron survival, single factor in serum-free medium [4, 7]: virtually no survival promoting effect
DRG neuron survival, single factor in serum-free medium [5, 7]: virtually no survival promoting effect
effect on DRG neuron survival when added together with GDF-5 ([5]; factor at saturating concentration plus GDF-5 20 ng/ml, E8, 48 h): synergistic or additive effects
DRG neuron survival with GDNF in serum containing medium [6]: levels identical to those achieved by addition of the respective neurotrophic factor
